Numbering of substitutions follows the chain as printed. In names and notes the source's numbering stands.

The values that follow come from patent US20230391876A1 (HANALL BIOPHARMA, published 2023).

Test [1] deals with T1, hFcRn on hFcRn-expressing HEK293 cells (human, UniProt P55899 24-365; P61769 21-119).
T1 construct: whole, on cells; also called hFcRn HEK293
Briefly: FACS on hFcRn HEK293 cells, 10 nM antibody, pH 6.0.
Experimental: (§1) The analysis of hFcRn binding using FACS was carried out under two conditions of pH 6.0 and pH 7.4. hFcRn-expressing 1TEK293 (hFcRn HEK293) cells were diluted with the reaction buffer (0.0500 BSA in PBS, pH 6.0 or pH 7.4) and prepared in duplicate in a 96 well plate at 1×10⁵ cells for each sample. In addition, each antibody sample was diluted with the reaction buffer to 10 nM, and then put into a 96 well plate, and incubated at 4° C. for 90 minutes. Thereafter, the plate was centrifuged to remove the supernatant, and then Alexa488-goat anti-hIgG Ab (1:200) was added thereto, and again incubated at 4° C. for 90 minutes. After the reaction was completed, it was centrifuged to remove the supernatant, and 200 μL of the reaction buffer was added to resuspend the cell pellet, and then the MFI value was measured in a FACS instrument.

Test [2] concerns the target T2, shFcRn (soluble human FcRn) (human, UniProt P55899 24-297; P61769 21-119).
T2 construct: extracellular domain; Printed only as 'soluble human FcRn'; also called hFcRn (immobilized on a chip)
Briefly: SPR, shFcRn immobilized on chip, antibody as analyte, pH 7.4. (In general: SPR reads the build-up and loss of mass on a sensor chip optically.)
Experimental: (§2) Kinetic analysis was performed using a 1:1 Langmuir binding model, and the average KD value was obtained by repeating the analysis 6 times in each condition of pH 6.0 and pH 7.4.
(§3) Chip activation was performed under EDAC/NHS 0.5×, 30 μL/min, and 300 sec conditions. Thereafter, shFcRn was prepared at 2 μg/mL, 250 μL using an acetate buffer (pH 5.5), and immobilization was performed while flowing at 30 μL/min. The reaction was stopped when the immobilization level corresponded to 200 RU to 300 RU. Thereafter, deactivation was performed using ethanolamine at 30 μL/min, 300 sec. […] Sample dilution was performed using 1×PBST (pH 7.4) or 1×PBST (pH 6.0) buffer depending on the analysis pH. In the sample analysis conditions, association was carried out by reaction at 50 μL/min, 200 sec, and dissociation was carried out by reaction at 50 μL/min, 600 sec. Thereafter, reaction was carried out using a glycine buffer (pH 2.0) at 100 μL/min, 18 sec to perform regeneration. For kinetic analysis, samples were prepared and reacted once in three cells to which shFcRn was immobilized. Then three kinetic values were obtained, and then an average KD value was measured. When analyzing reaction signals, interspot-referencing and signals in which only buffer was analyzed were used for a double-referencing.

For test [3], the target named is T2, shFcRn (soluble human FcRn). Briefly: SPR, hFcRn immobilized on chip, pH 7.4.
Experimental: as §2, §3
Test [4] concerns the target T1, hFcRn on hFcRn-expressing HEK293 cells. Briefly: FACS on hFcRn HEK293 cells, 10 nM antibody, pH 7.4, high concentration sample.
Experimental: as §1
For test [5] the target is unchanged. Briefly: FACS on hFcRn HEK293 cells, pH 6.0; head prints 'FACS binding (EC50, nM)', taken as blocking of competitor Alexa488-hIgG1 (Example 4.5). (A flow cytometer gives signals particle by particle.)
Experimental: (§4) 1×10⁷ hFcRn HEK293 cells were seeded into a T75 flask and cultured for 24 hours. After culturing, the cells were removed and placed in a 96 well plate at 1×10⁵ cells for each sample in duplicate. […] After the reaction was completed, it was centrifuged to remove the supernatant. 200 μL of the reaction buffer was added to resuspend the cell pellet, and then the MFI value was measured in a FACS instrument.
The target is the same in test [6]. Briefly: FACS on hFcRn HEK293 cells, pH 6.0, high concentration sample; head prints 'FACS binding (EC50, nM)', taken as blocking of competitor Alexa488-hIgG1 (Example 5.5).
Experimental: as §4
The evaluation of hFcRn blocking was performed at 0.1 nM, 1 nM, 10 nM, and 100 nM using FACS.
For test [7] the target is unchanged. Briefly: FACS on hFcRn HEK293 cells, 10 nM antibody, pH 6.0, high concentration sample.
Experimental: as §1
For test [8] the target is unchanged. Briefly: FACS on hFcRn HEK293 cells, 10 nM antibody, pH 7.4.
Experimental: as §1
In test [9] the target is T2, shFcRn (soluble human FcRn). Briefly: SPR, shFcRn immobilized on chip, antibody as analyte, pH 6.0.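 Note: kinetics fitted with a 1:1 Langmuir model, association 200 s and dissociation 600 s, samples diluted in PBST, double-referenced signals, values averaged across three shFcRn-coated cells.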
Experimental: as §2, §3
Test [10] has the same target. Briefly: SPR, hFcRn immobilized on chip, pH 6.0.
Experimental: as §2, §3

T2 sequence (P55899 24-297 limits assumed, chain 1 of 2): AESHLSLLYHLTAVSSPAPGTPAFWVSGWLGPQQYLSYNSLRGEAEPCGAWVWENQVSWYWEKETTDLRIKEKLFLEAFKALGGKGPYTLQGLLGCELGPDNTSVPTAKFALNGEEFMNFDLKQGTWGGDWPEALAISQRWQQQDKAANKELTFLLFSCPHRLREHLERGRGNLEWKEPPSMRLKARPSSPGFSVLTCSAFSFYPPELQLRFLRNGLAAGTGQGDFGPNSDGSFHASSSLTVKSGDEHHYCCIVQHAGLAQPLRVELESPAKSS
T2 sequence (P61769 21-119 limits assumed, chain 2 of 2): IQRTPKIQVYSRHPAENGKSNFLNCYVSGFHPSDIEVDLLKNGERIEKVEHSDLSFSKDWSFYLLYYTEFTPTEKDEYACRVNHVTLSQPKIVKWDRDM
T1 sequence (P55899 24-365 limits assumed, chain 1 of 2): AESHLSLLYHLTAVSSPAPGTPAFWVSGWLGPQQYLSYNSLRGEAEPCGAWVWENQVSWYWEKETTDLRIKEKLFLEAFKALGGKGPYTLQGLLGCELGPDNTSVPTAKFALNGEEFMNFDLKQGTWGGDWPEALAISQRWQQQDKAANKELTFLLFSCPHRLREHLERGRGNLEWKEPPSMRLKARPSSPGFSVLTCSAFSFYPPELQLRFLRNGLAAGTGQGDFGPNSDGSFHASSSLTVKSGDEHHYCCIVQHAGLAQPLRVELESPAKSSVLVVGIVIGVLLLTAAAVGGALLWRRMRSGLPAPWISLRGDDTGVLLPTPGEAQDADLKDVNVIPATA
T1 sequence (P61769 21-119 limits assumed, chain 2 of 2): as the sequence (P61769 21-119 limits assumed, chain 2 of 2) above

B1: HL161AN (antibody, human IgG1, V domains shown)
VL: SYVLTQPPSVSVAPGQTARITCGGNNIGSTSVHWYQQKPGQAPVLVVHDDSDRPSGIPERFSGSNSGNTATLTISRVEAGDEADYYCQVRDSSSDHVIFGGGTKLTVLGQPKAAPSVTL
VH: EVQLLESGGGLVQPGGSLRLSCAASEFTFGSCVMTWVRQAPGKGLEWVSVISGSGGSTYYADSVKGRFTISRDNSKNTLYLQMNSLRAEDTAVYYCAKTPWWLRSPFFDYWGQGTLVTVSS
notes: also called HL161AN RS
As to B1, the MFI in [1] came out at 2720 MFI; in test [4] it was 7160 MFI; in test [7], 2950 MFI; in [8] it was 6150 MFI. For the same molecule, the values for the Kd in [2], in test [3] and in test [9] were 0.294 nM, 0.27 nM and 0.116 nM, respectively. In addition, the EC50 (usually the concentration needed to bring the measured effect to its halfway point) in [5] amounted to 1.83 nM; in test [6], 0.91 nM.

B2: HL161AN variant No. 20 (LC:N25Q, HC:C32Y Q82S) (antibody, human IgG1, V domains shown)
VL: B1 VL with N25Q
VH: B1 VH with C32Y, Q82S
notes: Variable domains only
Take B2: the MFI in [1] was determined as 2520 MFI; in test [8], 5840 MFI. Besides, the Kd (commonly the concentration at which binding is half-saturated) in [2] came to 0.283 nM; in test [3] it was 0.35 nM; in test [10], 0.17 nM; in test [9], 0.2 nM. In addition, the off-rate (koff) – broadly, the first-order rate constant of dissociation – in test [2] worked out at 0.00056 s⁻¹; in test [9] it was 0.000509 s⁻¹. Besides, the kon – broadly, a measure of how fast the partners come together – in test [2] is 1.98e+06 M⁻¹ s⁻¹; in [9], 2.54e+06 M⁻¹ s⁻¹. In test [5], a half-maximal effect (EC50) was put at 1.16 nM.

B3: HL161AN variant No. 10 (LC:N25S, HC:C32Y Q82T) (antibody, human IgG1, V domains shown)
VL: B1 VL with N25S
VH: B1 VH with C32Y, Q82T
notes: Variable domains only
Consider B3, for which the MFI in test [1] turned out to be 2580 MFI; in test [8], 6660 MFI. Besides, the equilibrium dissociation constant (Kd) turned out to be 0.256 nM in [2], 0.36 nM in [3], 0.15 nM in [10] and 0.205 nM in [9]. The values for the off-rate constant (koff) in [2] and in [9] were 0.000494 s⁻¹ and 0.000573 s⁻¹, respectively. Also, the kon is 1.93e+06 M⁻¹ s⁻¹ in test [2] and 2.8e+06 M⁻¹ s⁻¹ in test [9]. Moreover, the midpoint of the response in [5], the EC50, lay at 1.37 nM.

B4: HL161AN variant No. 5 (LC:N25S, HC:Q82E) (antibody, human IgG1, V domains shown)
VL: B1 VL with N25S
VH: B1 VH with Q82E
notes: Variable domains only
For B4, the values for the MFI in test [1] and in test [8] were 2570 MFI and 6350 MFI, respectively. For the same molecule, the Kd was determined as 0.637 nM in test [2], 0.67 nM in test [3], 0.16 nM in [10] and 0.229 nM in test [9]. The figures for the koff in [2] and in [9] were 0.000743 s⁻¹ and 0.000563 s⁻¹, respectively. For the same molecule, the kon in test [2] amounted to 1.17e+06 M⁻¹ s⁻¹; in [9], 2.46e+06 M⁻¹ s⁻¹. Further, the EC50 in test [5] came to 1.46 nM.

B5: HL161AN variant No. 18 (LC:N25Q, HC:C32S Q82T) (antibody, human IgG1, V domains shown)
VL: B1 VL with N25Q
VH: B1 VH with C32S, Q82T
notes: Variable domains only
Take B5: the MFI is 2520 MFI in test [1] and 6910 MFI in test [8]. In addition, the Kd in test [2] was 0.226 nM; in [3] it was 0.33 nM; in test [10], 0.25 nM; in [9], 0.198 nM. Besides, the off-rate constant (koff) in test [2] is 0.000542 s⁻¹; in test [9], 0.000562 s⁻¹. Further, the kon in test [2] worked out at 2.39e+06 M⁻¹ s⁻¹; in [9] it was 2.84e+06 M⁻¹ s⁻¹. For the same molecule, the EC50 in test [5] was determined as 1.15 nM.

B6: HL161AN variant No. 14 (LC:N25Q, HC:Q82S) (antibody, human IgG1, V domains shown)
VL: B1 VL with N25Q
VH: B1 VH with Q82S
notes: Variable domains only
Turning to B6, the MFI was determined as 2590 MFI in [1] and 6490 MFI in test [8]. Further, the Kd in [2] came to 0.283 nM; in test [3], 0.35 nM; in [10] it was 0.2 nM; in [9], 0.208 nM. Besides, the koff is 0.000551 s⁻¹ in test [2] and 0.000558 s⁻¹ in test [9]. Besides, the kon turned out to be 1.95e+06 M⁻¹ s⁻¹ in test [2] and 2.68e+06 M⁻¹ s⁻¹ in [9]. The EC50 in [5] was found to be 1.29 nM.

B7: HL161AN variant No. 6 (LC:N25S, HC:C32S Q82S) (antibody, human IgG1, V domains shown)
VL: B1 VL with N25S
VH: B1 VH with C32S, Q82S
notes: Variable domains only
In the case of B7, the MFI in test [1] came out at 2650 MFI; in test [8], 6920 MFI. The Kd came out at 0.13 nM in test [10] and 0.163 nM in [9]. In test [5], it took 1.31 nM to reach a half-maximal effect (EC50).

B8: HL161AN variant No. 17 (LC:N25Q, HC:C32S Q82S) (antibody, human IgG1, V domains shown)
VL: B1 VL with N25Q
VH: B1 VH with C32S, Q82S
notes: Variable domains only
For the molecule B8, the MFI came out at 2640 MFI in [1] and 6750 MFI in test [8]. The Kd in test [2] worked out at 0.249 nM; in test [3] it was 0.3 nM; in test [10] it was 0.22 nM; in [9] it was 0.169 nM. Besides, the koff worked out at 0.000566 s⁻¹ in test [2] and 0.000538 s⁻¹ in test [9]. Further, the figures for the kon in test [2] and in test [9] were 2.27e+06 M⁻¹ s⁻¹ and 3.19e+06 M⁻¹ s⁻¹, respectively. Moreover, the EC50 in [5] turned out to be 1.3 nM.

B9: HL161AN variant No. 21 (LC:N25Q, HC:C32Y Q82T) (antibody, human IgG1, V domains shown)
VL: B1 VL with N25Q
VH: B1 VH with C32Y, Q82T
notes: Variable domains only
Turning to B9, the figures for the MFI in test [1] and in test [8] were 2430 MFI and 6030 MFI, respectively. Besides, the Kd amounted to 0.209 nM in test [2], 0.3 nM in [3], 0.18 nM in [10] and 0.206 nM in [9]. The koff in test [2] stood at 0.000499 s⁻¹; in test [9] it was 0.000552 s⁻¹. Besides, the kon in [2] turned out to be 2.39e+06 M⁻¹ s⁻¹; in [9], 2.67e+06 M⁻¹ s⁻¹. Further, in [5], the EC50 came out at 1.11 nM.

B10: HL161AN variant No. 9 (LC:N25S, HC:C32Y Q82S) (antibody, human IgG1, V domains shown)
VL: B1 VL with N25S
VH: B1 VH with C32Y, Q82S
notes: Variable domains only
For B10, the MFI in test [1] was determined as 2660 MFI; in test [8], 6750 MFI. The values for the Kd in [2], in test [10] and in [9] were 0.245 nM, 0.16 nM and 0.177 nM, respectively. Besides, in [5], a half-maximal response (EC50) required 1.43 nM.

B11: HL161AN variant No. 3 (LC:N25S, HC:Q82S) (antibody, human IgG1, V domains shown)
VL: B1 VL with N25S
VH: B1 VH with Q82S
notes: Variable domains only
On to B11, for which the MFI in test [1] worked out at 2440 MFI; in test [8], 6240 MFI. The Kd in [2] was determined as 0.199 nM; in test [3] it was 0.21 nM; in test [9], 0.145 nM. Also, the concentration giving a half-maximal response (EC50) in test [5] was determined as 1.4 nM.

B12: HL161AN variant No. 4 (LC:N25S, HC:Q82T) (antibody, human IgG1, V domains shown)
VL: B1 VL with N25S
VH: B1 VH with Q82T
notes: Variable domains only
As to B12, the MFI came to 2690 MFI in [1] and 6300 MFI in test [8]. The Kd is 0.24 nM in test [2], 0.27 nM in [3] and 0.156 nM in test [9]. The molecule also displayed an EC50 in test [5] of 1.47 nM.

B13: HL161AN variant No. 15 (LC:N25Q, HC:Q82T) (antibody, human IgG1, V domains shown)
VL: B1 VL with N25Q
VH: B1 VH with Q82T
notes: Variable domains only
Turning to B13, the MFI in test [1] was 2570 MFI; in test [8], 6540 MFI. The Kd in [2] is 0.279 nM; in test [3], 0.36 nM; in [10] it was 0.33 nM; in test [9], 0.265 nM. Further, the koff in test [2] is 0.000513 s⁻¹; in test [9] it was 0.000601 s⁻¹. For the same molecule, the figures for the kon in [2] and in test [9] were 1.84e+06 M⁻¹ s⁻¹ and 2.27e+06 M⁻¹ s⁻¹, respectively. The same molecule displayed an EC50 in test [5] of 1.1 nM.

B14: HL161AN variant No. 7 (LC:N25S, HC:C32S Q82T) (antibody, human IgG1, V domains shown)
VL: B1 VL with N25S
VH: B1 VH with C32S, Q82T
notes: Variable domains only
Turning to B14, the MFI in test [1] was 2550 MFI; in test [8], 6620 MFI. Further, the Kd in test [2] turned out to be 0.187 nM; in test [3] it was 0.21 nM; in [9], 0.152 nM. For the same molecule, a half-maximal effect in test [5] (EC50) was put at 1.28 nM.

B15: HL161AN variant No. 16 (LC:N25Q, HC:Q82E) (antibody, human IgG1, V domains shown)
VL: B1 VL with N25Q
VH: B1 VH with Q82E
notes: Variable domains only
For the molecule B15, the MFI in [1] came out at 2540 MFI; in test [8], 6210 MFI. Besides, the equilibrium dissociation constant (Kd) in [2] was 0.272 nM; in test [3], 0.43 nM; in test [10], 0.33 nM; in test [9], 0.271 nM. For the same molecule, the koff was 0.000504 s⁻¹ in test [2] and 0.000556 s⁻¹ in test [9]. In addition, the kon in test [2] is 1.86e+06 M⁻¹ s⁻¹; in [9], 2.05e+06 M⁻¹ s⁻¹. Besides, the EC50 in test [5] was found to be 1.74 nM.
